In patent US20060257938A1, “Method of screening for drugs that block ligand binding to a lipid binding protein” (priority 2005, published 2006):
Residue numbers refer to the chain shown, from its start. Names and notes keep the numbering of the source. Values joined by “and” are separate entries in the source; they are usually repeats but may differ in a detail not shown here. Equal entries are not always repeated.

B1: 72F (protein, listed as Rattus norvegicus)
chain: AFDGTWKVDRNENYEKFMEKMGINVVKRKLGAHDNLKLTITQEGNKFTVKESSNFRNIDVVFELGVDFAYSFADGTELTGTWTMEGNKLVGKFKRVDNGKELIAVREISGNELIQTYTYEGVEAKRIFKKE
modifications: PEPTIDE (1)...(131) wild-type rat intestinal fatty acid binding protein
B2: L2P11B4: FABP probe, substitutions M18V G31A A73W vs SEQ ID NO: 2 (protein, listed as Rattus norvegicus)
chain: B1 chain with M18V, G31A, F72L, A73W
modifications: PEPTIDE (1)...(131) wild-type rat intestinal fatty acid binding protein
B3: L2P2E11: FABP probe, substitutions M18I G31F vs SEQ ID NO: 2 (protein, listed as Rattus norvegicus)
chain: B1 chain with M18I, G31F, F72L
modifications: PEPTIDE (1)...(131) wild-type rat intestinal fatty acid binding protein
B4: 72T 73W 74G (protein, listed as Rattus norvegicus)
chain: B1 chain with F72T, A73W, D74G
modifications: PEPTIDE (1)...(131) wild-type rat intestinal fatty acid binding protein
B5: 72H 73P 74L (protein, listed as Rattus norvegicus)
chain: B1 chain with F72H, A73P, D74L
modifications: PEPTIDE (1)...(131) wild-type rat intestinal fatty acid binding protein
B6: 18I 31F 72A (protein, listed as Rattus norvegicus)
chain: B1 chain with M18I, G31F, F72A
modifications: PEPTIDE (1)...(131) wild-type rat intestinal fatty acid binding protein
B7: 38Y 18L 73V 72A (protein, listed as Rattus norvegicus)
chain: B1 chain with M18L, L38Y, F72A, A73V
modifications: PEPTIDE (1)...(131) wild-type rat intestinal fatty acid binding protein
B8: 38Y 62W 117A 72A (protein, listed as Rattus norvegicus)
chain: B1 chain with L38Y, F62W, F72A, Y117A
modifications: PEPTIDE (1)...(131) wild-type rat intestinal fatty acid binding protein
B9: 21W 72A (protein, listed as Rattus norvegicus)
chain: B1 chain with M21W, F72A
modifications: PEPTIDE (1)...(131) wild-type rat intestinal fatty acid binding protein
B10: 119M, 72A (protein, listed as Rattus norvegicus)
chain: B1 chain with F72A, Y119M
modifications: PEPTIDE (1)...(131) wild-type rat intestinal fatty acid binding protein
B11: 72S 73P 74I (protein, listed as Rattus norvegicus)
chain: B1 chain with F72S, A73P, D74I
modifications: PEPTIDE (1)...(131) wild-type rat intestinal fatty acid binding protein
B12: L1P1 C12: FABP probe, mutations 38I 72W 117W vs SEQ ID NO: 2 (protein, listed as Rattus norvegicus)
chain: B1 chain with L38I, F72W, Y117W
modifications: PEPTIDE (1)...(131) wild-type rat intestinal fatty acid binding protein
B13: L5P16 H4: FABP probe, mutations 126K 73F 72A vs SEQ ID NO: 2 (protein, listed as Rattus norvegicus)
chain: B1 chain with F72A, A73F, R126K
modifications: PEPTIDE (1)...(131) wild-type rat intestinal fatty acid binding protein
B14: L1P14 D6: FABP probe, mutations 14M 72V 117W vs SEQ ID NO: 2 (protein, listed as Rattus norvegicus)
chain: B1 chain with Y14M, F72V, Y117W
modifications: PEPTIDE (1)...(131) wild-type rat intestinal fatty acid binding protein
B15: L1P12 E8: FABP probe, mutations 14L 38A 72G 117F 114E vs SEQ ID NO: 2 (protein, listed as Rattus norvegicus)
chain: B1 chain with Y14L, L38A, F72G, I114E, Y117F
modifications: PEPTIDE (1)...(131) wild-type rat intestinal fatty acid binding protein
B16: L2P22 B1: FABP probe, mutations 18Y 31V 55V 72A vs SEQ ID NO: 2 (protein, listed as Rattus norvegicus)
chain: B1 chain with M18Y, G31V, F55V, F72A
modifications: PEPTIDE (1)...(131) wild-type rat intestinal fatty acid binding protein
B17: L1P1 B4: FABP probe, mutations 14I 72W 117W vs SEQ ID NO: 2 (protein, listed as Rattus norvegicus)
chain: B1 chain with Y14I, F72W, Y117W
modifications: PEPTIDE (1)...(131) wild-type rat intestinal fatty acid binding protein
B18: L1P5 H9: FABP probe, mutations 14M 72I 117W vs SEQ ID NO: 2 (protein, listed as Rattus norvegicus)
chain: B1 chain with Y14M, F72I, Y117W
modifications: PEPTIDE (1)...(131) wild-type rat intestinal fatty acid binding protein

Experiment: Probe fluorescence ratio response to arachidonic acid relative to ADIFAB2
Format: binding
Details: Arachidonic acid; response relative to ADIFAB2
How it was run: (§1)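 Fluorescently labeled rat intestinal FABP variants were read at two emission wavelengths, near the unbound maximum (about 420 to 480 nm) and the FFA-bound maximum (about 495 to 580 nm). R = Fλ1/Fλ2 after subtracting probe-free intensity; ΔR = R+agent − R0, normalized to ADIFAB2 (rI-FABP-L72A).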

| Molecule | DR/DR AA |
| --- | --- |
| B1 | 0.40 |

Same assay, conditions: Table 5; Arachidonic acid

| Molecule | ΔR/DRAΔ2 AA |
| --- | --- |
| B2 | 1.8 |
| B3 | 1.9 |

Same assay, conditions: arachidonic acid; response relative to ADIFAB2

| Molecule | DR/DR AA |
| --- | --- |
| B1 | 0.401 |
| B4 | 0.687 |
| B5 | 4.597 |
| B6 | 2.043 |
| B7 | 1.172 |
| B8 | 2.353 |
| B9 | 3.829 |
| B10 | 1.087 |
| B11 | 2.154 |

Experiment: Probe fluorescence ratio response to linolenic acid relative to ADIFAB2
Format: binding
Details: Table 5
How it was run: as §1

| Molecule | ΔR/DRAΔ2 LNA |
| --- | --- |
| B2 | 2.8 |
| B3 | 2.8 |

Same assay, conditions: response relative to ADIFAB2

| Molecule | DR/DR LNA |
| --- | --- |
| B1 | 0.59 and 0.592 |
| B4 | 1.702 |
| B5 | 6.352 |
| B6 | 3.027 |
| B7 | 0.133 |
| B8 | 1.237 |
| B9 | 2.550 |
| B10 | 2.280 |
| B11 | 3.091 |

Experiment: Probe fluorescence ratio response to linoleic acid relative to ADIFAB2
Format: binding
Details: Table 5
How it was run: as §1

| Molecule | ΔR/DRAΔ2 LA |
| --- | --- |
| B2 | 2.6 |
| B3 | 2.5 |

Same assay, conditions: response relative to ADIFAB2

| Molecule | DR/DR LA |
| --- | --- |
| B1 | 0.61 and 0.612 |
| B4 | 1.348 |
| B5 | 5.429 |
| B6 | 2.707 |
| B7 | 0.034 |
| B8 | 1.848 |
| B9 | 2.551 |
| B10 | 1.184 |
| B11 | 2.792 |

Experiment: Probe fluorescence ratio response to oleic acid relative to ADIFAB2
Format: binding
Details: Table 5
How it was run: as §1

| Molecule | ΔR/DRAΔ2 OA |
| --- | --- |
| B2 | 1.9 |
| B3 | 1.6 |

Same assay, conditions: response relative to ADIFAB2

| Molecule | DR/DR OA |
| --- | --- |
| B1 | 0.57 and 0.571 |
| B4 | 0.822 |
| B5 | 3.919 |
| B6 | 1.761 |
| B7 | 0.235 |
| B8 | 1.896 |
| B9 | 2.808 |
| B10 | 1.191 |
| B11 | 2.162 |

Experiment: Probe fluorescence ratio response to palmitic acid relative to ADIFAB2
Format: binding
Details: Table 5
How it was run: as §1

| Molecule | ΔR/DRAΔ2 PA |
| --- | --- |
| B2 | 2.2 |
| B3 | 2.0 |

Same assay, conditions: response relative to ADIFAB2

| Molecule | DR/DR PA |
| --- | --- |
| B1 | 0.46 and 0.456 |
| B4 | 1.817 |
| B5 | 5.260 |
| B6 | 2.037 |
| B7 | 0.067 |
| B8 | 0.316 |
| B9 | 1.637 |
| B10 | 0.722 |
| B11 | 2.210 |

Experiment: Probe fluorescence ratio response to palmitoleic acid relative to ADIFAB2
Format: binding
Details: Table 5
How it was run: as §1

| Molecule | ΔR/DRAΔ2 POA |
| --- | --- |
| B2 | 3.1 |
| B3 | 2.6 |

Same assay, conditions: response relative to ADIFAB2

| Molecule | DR/DR POA |
| --- | --- |
| B4 | 2.770 |
| B5 | 7.165 |
| B6 | 2.659 |
| B7 | 0.023 |
| B8 | 0.272 |
| B9 | 2.120 |
| B11 | 3.155 |

Experiment: Probe fluorescence ratio response to stearic acid relative to ADIFAB2
Format: binding
Details: Table 5
How it was run: as §1

| Molecule | ΔR/DRAΔ2 SA |
| --- | --- |
| B2 | 0.7 |
| B3 | 0.8 |

Same assay, conditions: response relative to ADIFAB2

| Molecule | DR/DR SA |
| --- | --- |
| B4 | 0.305 |
| B5 | 1.474 |
| B6 | 0.950 |
| B7 | 0.824 |
| B8 | 0.854 |
| B9 | 1.946 |
| B11 | 1.337 |

Experiment: Probe fluorescence intensity change with UCB:BSA
Format: binding
Details: 1:1 UCB:BSA, 440 nm

| Molecule | ΔI/Io 1:1 UCB:BSA 440 nm |
| --- | --- |
| B12 | −0.92 |
| B13 | −0.69 |
| B14 | −0.69 |
| B15 | −0.79 |
| B16 | −0.70 |
| B17 | −0.66 |
| B18 | −0.58 |

Same assay, conditions: 1:1 UCB:BSA, 500 nm

| Molecule | ΔI/Io 1:1 UCB:BSA 500 nm |
| --- | --- |
| B12 | −0.86 |
| B13 | −0.64 |
| B14 | −0.64 |
| B15 | −0.70 |
| B16 | −0.68 |
| B17 | −0.64 |
| B18 | −0.63 |

Same assay, conditions: 1:2 UCB:BSA, 440 nm

| Molecule | ΔI/Io 1:2 UCB:BSA 440 nm |
| --- | --- |
| B12 | −0.86 |
| B13 | −0.37 |
| B14 | −0.37 |
| B15 | −0.45 |
| B16 | −0.36 |
| B17 | −0.36 |
| B18 | −0.34 |

Same assay, conditions: 1:2 UCB:BSA, 500 nm

| Molecule | ΔI/Io 1:2 UCB:BSA 500 nm |
| --- | --- |
| B12 | −0.79 |
| B13 | −0.31 |
| B14 | −0.33 |
| B15 | −0.39 |
| B16 | −0.35 |
| B17 | −0.35 |
| B18 | −0.34 |

Experiment: Response profile of probe to fatty acids (Table 2)
Format: binding
Details: not given

| Molecule | response profile |
| --- | --- |
| B1 | AA lowest |
| B4 | SA and AA lowest |
| B5 | Large Response, Favors |
| B6 | Favors LNA |
| B7 | AA and SA |
| B8 | Favors AA |
| B9 | Large Response, Favors AA |
| B10 | Favors LNA |
| B11 | Favors POA and LNA |
